{"source": "patent US20230087600A1", "about": "(Bristol-Myers Squibb, published 2023)", "binders": {"B1": {"name": "wildtype human IL-10 (ligand)", "chain": "SPGQGTQSENSCTHFPGNLPNMLRDLRDAFSRVKTFFQMKDQLDNLLLKESLLEDFKGYLGCQALSEMIQFYLEEVMPQAENQDPDIKAHVNSLGENLKTLRLRLRRCHRFLPCENKSKAVEQVKNAFNKLQEKGIYKAMSEFDIFINYIEAYMTMKIRN"}, "B2": {"name": "Fc-IL-10 (human IgG1.3f Fc domain - GGGGSSGGGGSGGGGSGGGGS linker - wildtype human IL-10) (Fc fusion)", "chain": "DKTHTCPPCPAPEAEGAPSVFLFPPKPKDTLMISRTPEVTCVVVDVSHEDPEVKFNWYVDGVEVHNAKTKPREEQYNSTYRVVSVLTVLHQDWLNGKEYKCKVSNKALPAPIEKTISKAKGQPREPQVYTLPPSREEMTKNQVSLTCLVKGFYPSDIAVEWESNGQPENNYKTTPPVLDSDGSFFLYSKLTVDKSRWQQGNVFSCSVMHEALHNHYTQKSLSLSPGGGGGSSGGGGSGGGGSGGGGSSPGQGTQSENSCTHFPGNLPNMLRDLRDAFSRVKTFFQMKDQLDNLLLKESLLEDFKGYLGCQALSEMIQFYLEEVMPQAENQDPDIKAHVNSLGENLKTLRLRLRRCHRFLPCENKSKAVEQVKNAFNKLQEKGIYKAMSEFDIFINYIEAYMTMKIRN"}}, "molecular_target": "T1, human IL-10 receptor (IL-10R) on T cells and B cells of human whole blood (human, UniProt Q13651 22-578; Q08334 20-325)", "T1 sequence (looked up) 1": "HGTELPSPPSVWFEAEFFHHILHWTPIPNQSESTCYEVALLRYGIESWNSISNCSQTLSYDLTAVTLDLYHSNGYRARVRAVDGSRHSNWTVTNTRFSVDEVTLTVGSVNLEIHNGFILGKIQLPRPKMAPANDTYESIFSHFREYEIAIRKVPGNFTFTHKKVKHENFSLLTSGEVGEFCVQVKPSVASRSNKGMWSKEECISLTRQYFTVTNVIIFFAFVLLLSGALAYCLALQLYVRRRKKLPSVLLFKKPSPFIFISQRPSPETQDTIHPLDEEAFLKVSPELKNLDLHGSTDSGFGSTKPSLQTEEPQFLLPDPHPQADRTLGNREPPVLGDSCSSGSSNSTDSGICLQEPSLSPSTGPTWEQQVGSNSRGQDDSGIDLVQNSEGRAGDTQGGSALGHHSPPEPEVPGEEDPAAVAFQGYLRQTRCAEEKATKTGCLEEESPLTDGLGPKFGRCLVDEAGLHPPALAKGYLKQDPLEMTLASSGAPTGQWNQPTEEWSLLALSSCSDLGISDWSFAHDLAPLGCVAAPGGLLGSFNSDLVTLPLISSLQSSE", "T1 sequence (looked up) 2": "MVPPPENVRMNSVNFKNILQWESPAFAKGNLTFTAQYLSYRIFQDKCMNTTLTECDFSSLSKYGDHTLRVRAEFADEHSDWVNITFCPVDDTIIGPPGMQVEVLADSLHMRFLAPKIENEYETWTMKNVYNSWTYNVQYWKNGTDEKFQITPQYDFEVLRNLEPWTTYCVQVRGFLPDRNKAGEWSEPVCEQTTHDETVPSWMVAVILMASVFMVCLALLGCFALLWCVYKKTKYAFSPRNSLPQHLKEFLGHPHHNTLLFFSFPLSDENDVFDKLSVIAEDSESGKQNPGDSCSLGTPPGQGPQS", "assay": "cell-based or functional assay"}
{"binder": "B1", "values": [{"measurement": "STAT3 phosphorylation (pY705), flow cytometry, CD3+ T cells in human whole blood, EC50", "result": 47.7, "unit": "pM"}, {"measurement": "STAT3 phosphorylation (pY705), flow cytometry, CD19+ B cells in human whole blood, EC50", "result": 116, "unit": "pM"}]}
{"binder": "B2", "values": [{"measurement": "STAT3 phosphorylation (pY705), flow cytometry, CD3+ T cells in human whole blood, EC50", "result": 222, "unit": "pM"}, {"measurement": "STAT3 phosphorylation (pY705), flow cytometry, CD19+ B cells in human whole blood, EC50", "result": 352, "unit": "pM"}]}
